Measured values: publication doi:10.1101/2020.05.01.070730 (bioRxiv, 2020)

What was measured:
MutS R272A = molecular target: T1, MutS R272A (Pseudomonas aeruginosa, UniProt Q9HY08 1-855, R272A); assay: EMSA
T1 sequence: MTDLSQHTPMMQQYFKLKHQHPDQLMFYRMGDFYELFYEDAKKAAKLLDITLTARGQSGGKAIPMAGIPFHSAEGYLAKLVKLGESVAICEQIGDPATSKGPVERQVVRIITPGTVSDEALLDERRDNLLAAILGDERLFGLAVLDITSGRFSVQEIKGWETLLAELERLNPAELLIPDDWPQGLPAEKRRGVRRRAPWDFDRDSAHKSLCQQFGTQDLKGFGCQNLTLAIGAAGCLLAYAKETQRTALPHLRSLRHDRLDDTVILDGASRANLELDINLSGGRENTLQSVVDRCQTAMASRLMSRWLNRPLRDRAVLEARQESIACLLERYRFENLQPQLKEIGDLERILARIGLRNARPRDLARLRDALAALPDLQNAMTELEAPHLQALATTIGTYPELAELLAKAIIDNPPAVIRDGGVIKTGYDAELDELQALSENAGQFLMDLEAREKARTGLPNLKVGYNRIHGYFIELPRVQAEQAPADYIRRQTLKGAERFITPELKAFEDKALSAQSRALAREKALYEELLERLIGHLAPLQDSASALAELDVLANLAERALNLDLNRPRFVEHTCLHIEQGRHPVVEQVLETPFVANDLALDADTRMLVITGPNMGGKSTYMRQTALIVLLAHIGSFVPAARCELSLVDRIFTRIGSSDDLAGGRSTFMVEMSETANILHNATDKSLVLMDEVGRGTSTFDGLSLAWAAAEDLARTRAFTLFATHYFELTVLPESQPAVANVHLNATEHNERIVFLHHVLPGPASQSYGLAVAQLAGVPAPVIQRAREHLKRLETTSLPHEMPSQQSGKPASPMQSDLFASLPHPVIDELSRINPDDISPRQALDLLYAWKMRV

MutS = molecular target: T2, MutS (Pseudomonas aeruginosa, UniProt Q9HY08 1-855); assay: EMSA
T2 sequence: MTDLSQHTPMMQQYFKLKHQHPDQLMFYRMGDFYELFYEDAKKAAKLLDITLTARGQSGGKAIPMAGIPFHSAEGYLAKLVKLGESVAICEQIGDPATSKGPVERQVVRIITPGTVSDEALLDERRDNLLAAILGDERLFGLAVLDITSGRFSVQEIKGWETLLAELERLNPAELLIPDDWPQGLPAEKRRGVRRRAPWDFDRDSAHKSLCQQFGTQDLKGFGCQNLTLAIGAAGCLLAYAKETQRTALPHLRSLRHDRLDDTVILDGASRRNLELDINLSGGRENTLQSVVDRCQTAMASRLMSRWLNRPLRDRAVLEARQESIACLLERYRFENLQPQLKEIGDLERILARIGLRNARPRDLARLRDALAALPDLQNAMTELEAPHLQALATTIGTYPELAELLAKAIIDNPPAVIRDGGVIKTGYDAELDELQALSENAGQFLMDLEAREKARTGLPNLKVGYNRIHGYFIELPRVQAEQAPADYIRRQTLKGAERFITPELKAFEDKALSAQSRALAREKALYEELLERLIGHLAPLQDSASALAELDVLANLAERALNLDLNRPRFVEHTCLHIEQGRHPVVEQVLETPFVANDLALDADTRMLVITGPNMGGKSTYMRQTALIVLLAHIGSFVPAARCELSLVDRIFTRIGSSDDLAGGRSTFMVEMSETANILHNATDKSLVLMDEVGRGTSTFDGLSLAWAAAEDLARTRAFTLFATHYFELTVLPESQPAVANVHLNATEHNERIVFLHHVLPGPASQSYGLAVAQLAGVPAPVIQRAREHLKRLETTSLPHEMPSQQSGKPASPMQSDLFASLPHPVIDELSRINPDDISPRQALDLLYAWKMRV

MutS R842E = molecular target: T3, MutS R842E (Pseudomonas aeruginosa, UniProt Q9HY08 1-855, R842E); assay: native PAGE shift
T3 sequence: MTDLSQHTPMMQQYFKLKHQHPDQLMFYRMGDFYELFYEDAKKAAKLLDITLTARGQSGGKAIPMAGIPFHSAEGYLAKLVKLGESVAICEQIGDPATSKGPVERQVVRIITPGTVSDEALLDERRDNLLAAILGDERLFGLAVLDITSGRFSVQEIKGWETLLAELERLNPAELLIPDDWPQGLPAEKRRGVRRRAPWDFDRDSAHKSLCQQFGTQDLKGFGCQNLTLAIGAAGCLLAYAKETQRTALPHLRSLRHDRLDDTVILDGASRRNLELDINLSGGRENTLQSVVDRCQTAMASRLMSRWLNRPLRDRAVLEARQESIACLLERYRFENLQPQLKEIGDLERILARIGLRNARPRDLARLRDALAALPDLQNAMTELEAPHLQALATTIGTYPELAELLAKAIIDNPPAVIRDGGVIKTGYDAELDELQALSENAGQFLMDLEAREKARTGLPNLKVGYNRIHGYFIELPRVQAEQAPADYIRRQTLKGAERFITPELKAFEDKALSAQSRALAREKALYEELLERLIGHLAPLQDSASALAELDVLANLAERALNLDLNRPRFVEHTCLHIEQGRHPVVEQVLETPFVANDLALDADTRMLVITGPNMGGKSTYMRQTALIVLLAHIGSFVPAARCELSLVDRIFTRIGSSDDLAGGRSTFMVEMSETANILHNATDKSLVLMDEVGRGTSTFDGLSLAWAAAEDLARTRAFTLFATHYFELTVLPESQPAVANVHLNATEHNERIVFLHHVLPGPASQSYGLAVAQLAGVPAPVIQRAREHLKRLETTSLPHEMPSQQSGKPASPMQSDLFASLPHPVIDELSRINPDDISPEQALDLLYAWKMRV

Binder	Kd (MutS R272A) [nM]	Kd (MutS) [nM]	binding result (MutS R842E)
GT-pDNA (GT 8 nt from 3'-OH) (dsDNA) DNA 1: ATGTGAATCAGTATGGTTGCTATCTGC DNA 2: ATTTCCTTCAGCAGATAGTAACCATACTGATTCACAT	49.3 ± 1	20 ± 0.1	–
dsDNA (dsDNA) DNA 1: ATGTGAATCAGTATGGTTACTATCTGCTGAAGGAAAT DNA 2: ATTTCCTTCAGCAGATAGTAACCATACTGATTCACAT	309 ± 20.9	331 ± 15.9	binds
GT-dsDNA (GT 18 nt from 3' end) (dsDNA) DNA 1: ATGTGAATCAGTATGGTTGCTATCTGCTGAAGGAAAT DNA 2: ATTTCCTTCAGCAGATAGTAACCATACTGATTCACAT	38.2 ± 0.7	35 ± 0.9	binds
pDNA (AT) (dsDNA) DNA 1: ATGTGAATCAGTATGGTTACTATCTGC DNA 2: ATTTCCTTCAGCAGATAGTAACCATACTGATTCACAT	143 ± 8.6	50.7 ± 2.3	binds
